{
  "source": "paper PMC7058448",
  "target": "gp120-gp41 protomer of cleaved gp160, HIV-1 isolate 92UG037.8 (HIV-1 isolate 92UG037.8 (clade A))",
  "assay": "cryo-EM structure",
  "data": [
    {"substance": "gp120-gp41 protomer of cleaved gp160, HIV-1 isolate 92UG037.8 (complex)", "values": [
      {"measurement": "stoichiometry N", "value": 3}
    ]}
  ]
}
